Reference: US20100260765A1 (AstraZeneca / MedImmune, published 2010)

B1: 27D10 (antibody, V domains shown)
VH: QLQLQESGPGLVKPSETLSLTCTVSGGSISSRSDYWGWIRQPPGKGLEWIGTIYYSGSTFYNPSLKSRVTISVDTSKNQFSLKLSSVTAADTAVYYCARQQLVLYYFDYWGQGTLVTVSS
VL: not shown
notes: Purified fully human monoclonal antibody from XenoMouse hybridoma (IgG2 or IgG4 strains); also called MAb 27D10
B2: 24B3 (antibody, V domains shown)
VH: EVQLVESGGGLVKPGGSLRLSCAASGFTFSTYSMNWVRQAPGKGLEWVSFISGRSSYIYYADSVKGRFTISRDNAKNSLYLQMNSLRAEDTAVYYCSKDDWFEELWGQGTLVTVSS
VL: DIQMTQSPSSLSASVGDRVTITCRASQGIRSDLGWYQQKPGKAPKRLIYATSSLQSGVPSRFSGSGSGTEFTLTISSLQPEDFATYYCLQHNRYPWTFGQGTKVEIK
notes: Purified fully human monoclonal antibody from XenoMouse hybridoma (IgG2 or IgG4 strains); also called MAb 24B3

Legend:
human KDR on cells = human KDR on cells (human, UniProt P35968 20-1356); test: cell-based or functional assay
Sequence of human KDR on cells (P35968 20-1356): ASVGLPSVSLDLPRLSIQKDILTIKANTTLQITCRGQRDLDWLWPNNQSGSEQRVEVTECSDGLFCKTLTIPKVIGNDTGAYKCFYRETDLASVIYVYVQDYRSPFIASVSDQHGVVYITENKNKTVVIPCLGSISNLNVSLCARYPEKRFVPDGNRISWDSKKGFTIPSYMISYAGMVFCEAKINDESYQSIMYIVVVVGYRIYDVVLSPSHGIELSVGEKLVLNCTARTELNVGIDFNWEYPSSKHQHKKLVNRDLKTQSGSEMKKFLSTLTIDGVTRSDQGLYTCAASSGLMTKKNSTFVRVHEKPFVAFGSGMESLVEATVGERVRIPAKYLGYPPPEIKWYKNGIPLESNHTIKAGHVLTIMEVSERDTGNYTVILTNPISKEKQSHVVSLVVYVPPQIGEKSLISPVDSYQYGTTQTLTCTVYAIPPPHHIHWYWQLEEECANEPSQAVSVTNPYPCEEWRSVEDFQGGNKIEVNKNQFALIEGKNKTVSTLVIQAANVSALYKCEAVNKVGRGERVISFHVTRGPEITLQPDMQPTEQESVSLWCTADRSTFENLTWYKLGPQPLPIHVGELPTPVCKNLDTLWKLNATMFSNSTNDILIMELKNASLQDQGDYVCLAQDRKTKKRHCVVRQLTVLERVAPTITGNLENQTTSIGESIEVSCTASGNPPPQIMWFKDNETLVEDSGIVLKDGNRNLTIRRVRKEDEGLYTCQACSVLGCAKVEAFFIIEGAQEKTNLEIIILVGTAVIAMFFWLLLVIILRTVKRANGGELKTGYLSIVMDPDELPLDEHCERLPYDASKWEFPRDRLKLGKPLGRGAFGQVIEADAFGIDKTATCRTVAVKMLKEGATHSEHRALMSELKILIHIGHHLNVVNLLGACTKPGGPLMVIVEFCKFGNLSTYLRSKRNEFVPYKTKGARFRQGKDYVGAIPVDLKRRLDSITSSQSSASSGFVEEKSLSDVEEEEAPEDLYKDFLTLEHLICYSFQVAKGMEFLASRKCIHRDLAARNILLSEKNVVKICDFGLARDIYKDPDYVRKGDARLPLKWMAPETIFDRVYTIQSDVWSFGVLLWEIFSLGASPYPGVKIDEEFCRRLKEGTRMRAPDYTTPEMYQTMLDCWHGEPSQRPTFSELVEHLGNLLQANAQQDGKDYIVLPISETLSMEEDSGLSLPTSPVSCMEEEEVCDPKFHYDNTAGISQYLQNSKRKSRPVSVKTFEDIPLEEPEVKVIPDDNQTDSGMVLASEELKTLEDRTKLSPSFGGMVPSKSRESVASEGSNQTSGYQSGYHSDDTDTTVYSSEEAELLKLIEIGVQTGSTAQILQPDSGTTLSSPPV

[1] = target: T1, KDR (antigen used as analyte in the Biacore assay) (UniProt P35968 20-764, limits assumed); test: SPR, Biacore 2000; antibody amine-coupled on CM4 chip, KDR as analyte; global 1:1 fit; 23 C
T1 construct: also called the antigen KDR
T1 sequence (P35968 20-764 limits assumed): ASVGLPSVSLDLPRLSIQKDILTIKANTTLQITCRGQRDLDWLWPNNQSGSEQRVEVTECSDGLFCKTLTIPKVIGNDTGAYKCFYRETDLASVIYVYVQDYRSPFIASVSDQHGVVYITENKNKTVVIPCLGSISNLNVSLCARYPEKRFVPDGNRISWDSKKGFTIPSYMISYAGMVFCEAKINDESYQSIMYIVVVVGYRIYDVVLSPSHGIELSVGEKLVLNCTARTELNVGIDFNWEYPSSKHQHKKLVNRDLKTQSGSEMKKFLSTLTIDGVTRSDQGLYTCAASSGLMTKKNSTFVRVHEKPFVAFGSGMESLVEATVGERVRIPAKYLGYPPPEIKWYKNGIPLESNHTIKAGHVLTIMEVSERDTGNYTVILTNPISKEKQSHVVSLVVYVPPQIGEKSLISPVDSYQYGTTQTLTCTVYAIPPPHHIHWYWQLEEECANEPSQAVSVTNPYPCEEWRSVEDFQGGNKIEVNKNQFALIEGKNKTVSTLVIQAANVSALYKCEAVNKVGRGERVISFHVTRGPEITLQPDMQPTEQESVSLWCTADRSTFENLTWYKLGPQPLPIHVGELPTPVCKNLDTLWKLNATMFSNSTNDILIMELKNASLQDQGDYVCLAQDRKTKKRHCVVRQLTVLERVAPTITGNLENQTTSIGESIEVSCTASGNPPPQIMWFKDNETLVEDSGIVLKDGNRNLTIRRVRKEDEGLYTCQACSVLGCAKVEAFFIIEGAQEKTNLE
Experimental: Each purified anti-KDR antibody was immobilized on a CM4 sensor chip within a Biacore 2000 using standard amine coupling. Immobilization levels were kept between 250 and 350 RU. The concentration of KDR was determined by UV-VIS spectroscopy using a molar absorptivity at 280 nm of 110, 440 M⁻¹ cm⁻¹, which was calculated from the sequence of the protein using a method developed by Pace et al. (G. R. Grimsley and C. N. Pace (2003) in Current Protocols in Protein Science (John Wiley & Sons, Inc.), 3.1.1-3.1.9). The antigen KDR was diluted to a starting concentration of 52 nM and tested in a 3-fold dilution series in triplicate. The running buffer contained HBS-P with 0.1 mg/ml BSA and binding responses were collected at 23 degrees C. […] The response data were globally fit with a simple 1:1 interaction model. The number shown in parentheses is the standard error in the last significant figure.

% Inhibition (Average) of VEGF-C-mediated KDR activity, antibody 1 nM (human KDR on cells)	% Inhibition (Average) of VEGF-C-mediated KDR activity, antibody 10 nM (human KDR on cells)	% Inhibition (Average) of VEGF-C-mediated KDR activity, antibody 100 nM (human KDR on cells)	% Inhibition (N = 1) of VEGF-C-mediated KDR activity, antibody 1 nM (human KDR on cells)	% Inhibition (N = 1) of VEGF-C-mediated KDR activity, antibody 10 nM (human KDR on cells)	% Inhibition (N = 1) of VEGF-C-mediated KDR activity, antibody 100 nM (human KDR on cells)	% Inhibition (N = 2) of VEGF-C-mediated KDR activity, antibody 1 nM (human KDR on cells)	% Inhibition (N = 2) of VEGF-C-mediated KDR activity, antibody 10 nM (human KDR on cells)	% Inhibition (N = 2) of VEGF-C-mediated KDR activity, antibody 100 nM (human KDR on cells)	Kd [1]	koff [1]	kon [1]	Binder
51%	76%	80%	52%	73%	76%	50%	79%	84%	4.91 nM	0.000254 s⁻¹	51800 M⁻¹ s⁻¹	B1
30%	62%	71%	26%	61%	67%	34%	62%	75%	1.09 nM	0.000191 s⁻¹	175000 M⁻¹ s⁻¹	B2
